# Laboratory results from patent US20240425575A1.
# Molecular target: BSA (UniProt P02769)
# Assay: ELISA, BSA coated (control), E. coli supernatant, anti-VHH-HRP
# BSA, sequence (P02769 25-607 limits assumed): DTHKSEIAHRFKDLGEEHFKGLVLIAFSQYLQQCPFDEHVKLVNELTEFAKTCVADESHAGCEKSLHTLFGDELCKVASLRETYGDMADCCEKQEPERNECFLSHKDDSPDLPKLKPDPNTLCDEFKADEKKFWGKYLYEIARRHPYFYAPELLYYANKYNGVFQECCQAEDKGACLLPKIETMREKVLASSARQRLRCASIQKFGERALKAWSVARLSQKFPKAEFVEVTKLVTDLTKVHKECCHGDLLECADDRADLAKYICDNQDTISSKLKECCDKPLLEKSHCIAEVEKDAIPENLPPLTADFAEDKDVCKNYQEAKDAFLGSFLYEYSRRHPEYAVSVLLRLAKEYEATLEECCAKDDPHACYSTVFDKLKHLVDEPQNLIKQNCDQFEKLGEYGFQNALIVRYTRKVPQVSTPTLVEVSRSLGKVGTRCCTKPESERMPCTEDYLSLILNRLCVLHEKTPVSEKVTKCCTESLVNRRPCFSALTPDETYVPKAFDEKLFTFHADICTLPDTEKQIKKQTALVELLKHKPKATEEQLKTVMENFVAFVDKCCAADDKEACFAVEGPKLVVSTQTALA
row,Binder,OD Value Obtained after Binding to BSA
1,B1-H9 (VHH) VHH: EVQLVESGGDLVQAGGSLRLSCAASGSTFSSTIAGWYRQAPGKQRELVAGISNIGDTRYADSVKGRFTISRDNAKKTVYLQMNSLKPEDTAVYYCYAKYWARDYWGQGTQVTVSS,0.058 OD 450 nm
2,B1-G8 (VHH) VHH: QVQLVESGGGLVQTGDSLRLSCVAPGISFSNRGMAWYRQAPGKQRELVAAIDSAGSQRYAGSVKDRFTISRDNAKNTVFLQMNSLKPEDTAVYYCNQPRFNLWGQGTQVTVSS,0.065 OD 450 nm
3,B2-A6 (VHH) VHH: QLQLVESGGGLVQAGGSLRLSCFVSGSTFSASLMGWYRQAPGKERELVAGISNIGNTVYADSAKGRFTISRDGAKNTVHLQMNALKPEDTAVYYCYATVPRAAWGQGTQVTVSS,0.049 OD 450 nm
4,B1-G3 (VHH) VHH: EVQVVESGGGLVQPGGSLRLSCVASMPSGISFSNRGMAWYRQAPGKQRELVAAIDSAGSTRYQDSVKGRFTISRDNAKNTVFLQMNSLKPEDTAVYYCNQPAFKAWGQGTQVTVSS,0.067 OD 450 nm

# More lines, now with the values ahead:
row,OD Value Obtained after Binding to BSA,Binder
1,0.071 OD 450 nm,B4-C11 (VHH) VHH: QVQLVESGGGLVQAGGSLRLSCAASGSTFSNVVAGWYRQAPGKQRELVAGISNIGDTRYADSVKGRFTISRDNAKKAVYLQMNSLKPEDTAVYYCYAKYWARDYWGQGTQVTVSS
2,0.056 OD 450 nm,B3-H7 (VHH) VHH: EVQVVESGGGLVQAGGSLRLSCAASGSTAINSVAGWYRQAPGKQRELVAGISNIGDTRYADSVKGRFTISRDNAKKTVYLQMNSLKSEDTAVYYCYAKYWARDYWGQGTQVTVSS
3,0.063 OD 450 nm,B2-F10 (VHH) VHH: QVQLVESGGGLVQAGGSLRLSCGASGSAVSITLMAWYRQAPGKQRELVAGISNIGDTNYVDSVKDRFTISRINAKNAMYLQMNSLKPEDTAVYYCFAQDWGGHHYWGQGTQVTVSS
4,0.059 OD 450 nm,B4-D3 (VHH) VHH: QLQLVESGGGLVQPGGSLRLSCVASGASGISFSNRGMAWYRQAPGKQRELVAAIDSAGSPAYAGSVKGRFTISRDNAKNTVFLQMNSLKPEDTAVYYCNQPRFNLWGLGTQVTVSS
5,0.071 OD 450 nm,B3-C11 (VHH) VHH: EVQLVESGGGLVQAGGSLRLSCFVSGSTFSASLMGWYRQAPGKERELVAGISNIGNTVYADSAKGRFTISRDGAKNTVHLQMNALKPEDTAVYYCYATVPRAAWGQGTQVTVSS
6,0.07 OD 450 nm,B2-E2 (VHH) VHH: EVQLVESGGGLVQPGESLRLSCVASGFPSGFTFSDYQMYWYRQAPGKERELVAIISNDGLRKTYADSVKGRFTISRDNAKNTMFLQMNSLKPEDTAVYVCNVRRANRDDWGQGTQVTVSS
